Assay results published in patent publication US20250388682A1 (EPIBIOLOGICS, published 2025).

B1: EPI873 (hu15G11v5/Mav2) (bispecific antibody, human IgG1, kappa)
heavy: not shown
light: DIQMTQSPSSLSASVGDRVTITCRASDNLYSNLAWYQQKPGKSPKLLVYDATNLADGVPSRFSGSGSGTDYTLTISSLQPEDFATYYCQHFWGTPLTFGQGTKVEIKRTVAAPSVFIFPPSDEQLKSGTASVVCLLNNFYPREAKVQWKVDNALQSGNSQESVTEQDSKDSTYSLSSTLTLSKADYEKHKVYACEVTHQGLSSPVTKSFNRGEC
chain: not shown
B2: EPI1556-1 (hu15G11v5/EgB4) (bispecific antibody, human IgG1, kappa)
heavy: not shown
light: B1 light
chain: not shown
B3: EPI1022-1 (Duligotuzumab/Mav2) (bispecific antibody, human IgG1, kappa)
heavy: not shown
light: DIQMTQSPSSLSASVGDRVTITCRASQNIATDVAWYQQKPGKAPKLLIYSASFLYSGVPSRFSGSGSGTDFTLTISSLQPEDFATYYCQQSEPEPYTFGQGTKVEIKRTVAAPSVFIFPPSDEQLKSGTASVVCLLNNFYPREAKVQWKVDNALQSGNSQESVTEQDSKDSTYSLSSTLTLSKADYEKHKVYACEVTHQGLSSPVTKSFNRGEC
chain: not shown
B4: EPI1527-1 (Duligotuzumab/EgB4) (bispecific antibody, human IgG1, kappa)
heavy: not shown
light: B3 light
chain: not shown

biological target: Epidermal Growth Factor Receptor (EGFR) (human, UniProt P00533 25-1210); experiment: cell-based or functional assay

In order of falling “EGFR cell surface removal (percent; flow cytometry with a labeled anti-EGFR antibody after 24 hours at 50 nM)” value:
1. B4  78.6%
2. B1  76.4%
3. B3  75.1%
4. B2  69.2%
